Test [1] addresses Macaca fascicularis IL-36R extracellular domain expressed with a C-terminal myc-myc-hexahistidine tag (mfIL-36R-MMH) (Macaca fascicularis). In words: SPR Biacore 4000, mAb captured on anti-hFc, 37C.
The target in test [2] is Macaca fascicularis IL-36R extracellular domain expressed with a C-terminal myc-myc-hexahistidine tag (Macaca fascicularis). In words: SPR Biacore T200, mAb captured by anti-hFc, 25C, PBS-T pH 6.0.
Test [3] has the same target. As to the kind of experiment: SPR Biacore T200, mAb captured by anti-hFc, 37C, PBS-T pH 6.0. On the technique in general: Surface plasmon resonance follows binding to a sensor surface in real time, without labels.
The target is the same in test [4]. As to the kind of experiment: SPR (Biacore 4000), mAb captured on anti-human Fc, 25°C.
Test [5] has the same target. As to the kind of experiment: SPR Biacore T200, mAb captured by anti-hFc, 25C, PBS-T pH 7.4.
Test [6] has the same target. As to the kind of experiment: SPR Biacore T200, mAb captured by anti-hFc, 37C, PBS-T pH 7.4.
The target of test [7] is T1, human IL-36R (IL1RL2) on primary human cells (human) (UniProt Q9HB29).
T1 sequence (looked up): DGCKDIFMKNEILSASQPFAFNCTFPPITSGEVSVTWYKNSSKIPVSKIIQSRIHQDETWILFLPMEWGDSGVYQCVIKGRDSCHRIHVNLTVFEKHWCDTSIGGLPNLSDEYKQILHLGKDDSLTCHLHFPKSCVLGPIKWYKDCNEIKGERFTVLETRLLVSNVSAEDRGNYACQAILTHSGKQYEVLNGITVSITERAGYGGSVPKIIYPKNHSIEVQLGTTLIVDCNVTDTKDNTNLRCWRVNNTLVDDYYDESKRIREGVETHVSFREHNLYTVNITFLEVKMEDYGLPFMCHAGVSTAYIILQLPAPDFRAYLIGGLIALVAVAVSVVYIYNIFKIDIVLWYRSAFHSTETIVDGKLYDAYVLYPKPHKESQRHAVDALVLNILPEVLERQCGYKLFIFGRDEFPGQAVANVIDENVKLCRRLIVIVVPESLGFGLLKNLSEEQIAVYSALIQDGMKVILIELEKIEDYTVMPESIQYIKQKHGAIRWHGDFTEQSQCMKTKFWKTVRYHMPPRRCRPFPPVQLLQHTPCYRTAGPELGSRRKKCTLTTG
As to the kind of experiment: cell-based or functional assay.

B1: H4H14728P (antibody, human IgG4 S228P, kappa, V domains shown)
VH: QVQLQESGPGLVKPSQTLSLTCTVSGGSISSADYYWSWIRQHPGKGLEWIGSIYYTGSTYYNPSLKSRLTISIDTSENQFSLKLTSLTAADTAVYYCASEEANWGSHFDSWGQGTLVTVSS
VL: DIQMTQSPSSLSASVGDRVTITCRASQSIDNFLNWYQQKPGKAPKLLIYAASSLQSGVPSRFSGSGSGTDFTLTISSLQPEDFASYYCQHSHSAHPITFGQGTRLEIKR
As for B1, the 100 nM mfIL-36R-MMH Bound (RU) in test [1] is 77 RU; in test [2], 68 RU; in test [3], 91 RU; in test [4], 51 RU; in test [5], 74 RU; in test [6], 98 RU. The figures for the dissociation constant (Kd) in test [1] and in test [4] were 20.7 nM and 7.87 nM, respectively. The koff (in general, the first-order rate constant of dissociation) in test [1] was 0.00134 s⁻¹; in test [2], 0.000616 s⁻¹; in test [3], 0.00191 s⁻¹; in test [4], 0.000406 s⁻¹; in test [5] it was 0.000544 s⁻¹; in test [6], 0.00139 s⁻¹. Also, the on-rate constant (kon) (as a rule, a measure of how fast the partners come together) in test [1] was determined as 64800 M⁻¹ s⁻¹; in test [4], 51500 M⁻¹ s⁻¹. Further, in test [1], the t1/2 came to 9 min. Also, the t½ (commonly the time needed for the level to fall by half in the phase considered) in test [2] was 19 min; in test [3], 6 min; in test [4], 28 min; in test [5] it was 21 min; in test [6], 8 min.

B2: H4H14731P (antibody, human IgG4 S228P, kappa, V domains shown)
VH: QLQLQESGPGLVKPSETLSLTCTVSGGSISSSNYYWGWIRQPPGKRLEWIGSIYYSGSTYYNPSLKTRVTISVDTSKNQFSLKLTSVTAADTAVYYCAREEAAALTHFDFWGQGTLVTVSS
VL: DIQMTQSPSSLSASVGDRVTITCRASQSISNYLNWYQQKPGKAPKLLIFAASSLQSGVPSRFSGSGSGTDFTLTISSLQPEDFATYYCQHSHSSHPITFGQGTRLEIKR
For B2, in test [1], the 100 nM mfIL-36R-MMH Bound (RU) was 41 RU; the Kd (in general, the constant that tells how readily two partners part at equilibrium) worked out at 48.2 nM; the koff was 0.00322 s⁻¹; the kon turned out to be 66800 M⁻¹ s⁻¹. In test [1], this molecule returned a t1/2 of 4 min. In test [2], this molecule showed a 100 nM mfIL-36R-MMH Bound (RU) of 23 RU, a koff of 0.00152 s⁻¹ and a t½ of 8 min. In addition, in test [3], the 100 nM mfIL-36R-MMH Bound (RU) amounted to 40 RU, the koff is 0.00538 s⁻¹ and the t½ was determined as 2 min. For the same molecule, in test [4], the 100 nM mfIL-36R-MMH Bound (RU) is 33 RU, the Kd amounted to 15.9 nM, the dissociation rate constant (koff) came to 0.000951 s⁻¹ and the on-rate constant (kon) worked out at 59800 M⁻¹ s⁻¹. Further, in test [4], the t½ came out at 12 min. In addition, in test [5], the 100 nM mfIL-36R-MMH Bound (RU) came out at 36 RU, the koff is 0.00137 s⁻¹ and the t½ is 8 min. In test [6], this molecule displayed a 100 nM mfIL-36R-MMH Bound (RU) of 43 RU, a koff of 0.00361 s⁻¹ and a t½ of 3 min.

B3: H4H14757P (antibody, human IgG4 S228P, kappa, V domains shown)
VH: EVQLVESGGGLVQPGRSLRLSCTASGFTFDDYAMHWVRQAPGKGLEWVSGIRWNGGSIGYVDSVKGRFTISRDNAKKSLHLQMNSLKTEDTALYYCAKDIGDILTGFYGEYGMDVWGQGTTVTVSS
VL: DIQMTQSPSSLSASEGDRVTITCRASQSISSYLNWYQQKAGKAPNLLIYAASSLQSGVPSRFSGSGSGTEYTLTISSLQPEDFATYYCQQSYIIPYTFGQGTKLEIKR
In the case of B3, the 100 nM mfIL-36R-MMH Bound (RU) is 4 RU in test [1]; 1 RU in test [2]; -1 RU in test [3]; 1 RU in test [4]; 1 RU in test [5]; 0 RU in test [6].

B4: H4H14758P (antibody, human IgG4 S228P, kappa, V domains shown)
VH: EVQLVESGGGLVQPGRSLRLSCAASGFTFDDYAMHWVRQAPGKGLEWVSSVRWNGGIIGYADSVKGRFTISRDNAKNSLYLQMNSLRPEDTALYYCAKDIGDVLTGYYGEYGMDVWGQGTTVTVSS
VL: DIQMTQSPSSLSASVGDRVTIACRASQSITTYLNWYQQKPGKAPKLLIYAASSLQSGVPSRFSGSGSGTDFTLTISSLQPEDFATYYCQQSYISPYTFGQGTKLEIKR
As for B4, the 100 nM mfIL-36R-MMH Bound (RU) in test [1] is -1 RU; in test [2], 1 RU; in test [3], 1 RU; in test [4], -1 RU; in test [5], 0 RU; in test [6] it was 0 RU.

B5: H4H14700P2 (antibody, human IgG4 S228P, kappa, V domains shown)
VH: EVQLVESGGGLVQPGRSLRLSCAASGFTFDDYAMHWVRQTPGKGLEWVSVISWNSDVIAYSDSVKGRFTISRDNAKNSLYLQMNSLGTEDTALYYCAKGHNWNFFDYWGQGTLVTVSS
VL: EIVLTQSPATLSLSPGERATLSCRASQSVSSYLAWYQQKPGQAPRLLIYNVANRATDIPARFSGSGSGTDFTLTISGLEPEDFAVYFCQQRSNWPLTFGGGTKVEIKR
In the case of B5, the 100 nM mfIL-36R-MMH Bound (RU) in test [1] is 67 RU; in test [2] it was 80 RU; in test [3], 97 RU; in test [4], 48 RU; in test [5], 91 RU; in test [6] it was 108 RU. Also, the results for the dissociation constant Kd in test [1] and in test [4] were 27.8 nM and 10.6 nM, respectively. For the same molecule, the koff worked out at 0.00198 s⁻¹ in test [1]; 0.00171 s⁻¹ in test [2]; 0.00333 s⁻¹ in test [3]; 0.000635 s⁻¹ in test [4]; 0.000821 s⁻¹ in test [5]; 0.0018 s⁻¹ in test [6]. The kon in test [1] was determined as 71400 M⁻¹ s⁻¹; in test [4] it was 60200 M⁻¹ s⁻¹. The t1/2 in test [1] amounted to 6 min. In addition, the t½ amounted to 7 min in test [2]; 3 min in test [3]; 18 min in test [4]; 14 min in test [5]; 6 min in test [6].

B6: H4H14708P2 (antibody, human IgG4 S228P, kappa, V domains shown)
VH: EVQLVESGGDLVQPGRSLRLSCAASGFTFDDYAMHWVRQAPGKGLEWVSVISWNSDVIAYSDSVKGRFTISRDNAKNSLYLQMNSLRTEDTALYYCTKGHKWSFFDYWGQGTLVTVSS
VL: EIVLTQSPATLSLSPGERATLSCRASQSISSYLAWYQQKPGQAPRLLIFNVANRATDIPARFSGSGSGTDFTLTISSLEPEDFAVYYCQQRSNWPLTFGGGTKVEIKR
B6: in test [1], the 100 nM mfIL-36R-MMH Bound (RU) stood at 75 RU, the equilibrium dissociation constant (Kd) came out at 30.4 nM, the koff was determined as 0.00181 s⁻¹ and the kon was 59600 M⁻¹ s⁻¹. The molecule also came in with a t1/2 in test [1] of 6 min. Also, in test [2], the 100 nM mfIL-36R-MMH Bound (RU) was 47 RU, the koff was determined as 0.0015 s⁻¹ and the t½ worked out at 8 min. In test [3], this molecule had a 100 nM mfIL-36R-MMH Bound (RU) of 58 RU, an off-rate (koff) of 0.0031 s⁻¹ and a t½ of 4 min. In test [4], this molecule showed a 100 nM mfIL-36R-MMH Bound (RU) of 51 RU, a dissociation constant (Kd) of 12.9 nM, an off-rate (koff) of 0.000579 s⁻¹ and a kon of 45000 M⁻¹ s⁻¹. Also, in test [4], the t½ was 20 min. In test [5], this molecule had a 100 nM mfIL-36R-MMH Bound (RU) of 57 RU, a koff of 0.000752 s⁻¹ and a t½ of 15 min. Besides, in test [6], the 100 nM mfIL-36R-MMH Bound (RU) came to 66 RU, the koff was 0.00169 s⁻¹ and the t½ is 7 min.

B7: H4H14709P (antibody, human IgG4 S228P, kappa, V domains shown)
VH: EVQLVESGGGLVQPGGSLRLSCAASGFTFSDYAMSWVRQAPGKGLEWVSGISGNGGDTYYGDFVKGRFTISRDNSKNTLYLQMNSLRGEDTAAYFCVIDLDYWGQGTLVTVSS
VL: DIQMTQSPSTLSASEGDRVTITCRASQSISSWLAWYQQKPGKAPRLLIYKASILGDGVPSRFSGSGSGTEFTLTISSLQPDDFATYYCHQYNSYLWTFGQGTKVEIKR
B7: the 100 nM mfIL-36R-MMH Bound (RU) in test [1] was found to be 66 RU; in test [2] it was 48 RU; in test [3], 80 RU; in test [4], 34 RU; in test [5] it was 57 RU; in test [6], 92 RU. The Kd in test [1] worked out at 17.7 nM; in test [4] it was 14.3 nM. For the same molecule, the koff came out at 0.000871 s⁻¹ in test [1]; 0.00112 s⁻¹ in test [2]; 0.00294 s⁻¹ in test [3]; 0.000401 s⁻¹ in test [4]; 0.000519 s⁻¹ in test [5]; 0.000987 s⁻¹ in test [6]. Moreover, the kon in test [1] worked out at 49100 M⁻¹ s⁻¹; in test [4], 28000 M⁻¹ s⁻¹. Also, the t1/2 in test [1] worked out at 13 min. Further, the t½ was determined as 10 min in test [2]; 4 min in test [3]; 29 min in test [4]; 22 min in test [5]; 12 min in test [6].

B8: rhIL-36β/IL-1F8 [aa5-157] (ligand, human, UniProt Q9NZH7 5-157, looked up)
chain: REAAPKSYAIRDSRQMVWVLSGNSLIAAPLSRSIKPVTLHLIACRDTEFSDKEKGNMVYLGIKGKDLCLFCAEIQGKPTLQLKLQGSQDNIGKDTCWKLVGIHTCINLDVRESCFMGTLDQWGIGVGRKKWKSSFQHHHLRKKDKDFSSMRTN
On to B8, for which, in test [7], the EC50[M], IL-8 production, Intestinal MyoFibroblasts (InMyoFib), hIL-36β came out at 1.18e-09 M; the EC50[M], IL-8 production, Normal Epidermal Keratinocytes (NHEK), hIL-36β is 1.18e-09 M; the EC50[M], IL-8 production, PB-derived CD14+ Monocytes, hIL-36β was 2.63e-09 M.

The record behind these values is US20200017592A1.
